From publication PMC10807135 (ACS chemical biology, 2023) come the findings set out here.

Read-outs that look alike come from different tables or passages of the source.

The target of assay [1] is holo-AcpP (E. coli acyl carrier protein AcpP with phosphopantetheine) (Escherichia coli) (UniProt P0A6A8).
The target is the same in assay [2]. The source holds these as a separate data set.
Another assay concerns the target T1, PltF Q438R D263K A230R (Pseudomonas fluorescens, UniProt Q4KCY5 1-498, Q438R | D263K | A230R).
T1 sequence: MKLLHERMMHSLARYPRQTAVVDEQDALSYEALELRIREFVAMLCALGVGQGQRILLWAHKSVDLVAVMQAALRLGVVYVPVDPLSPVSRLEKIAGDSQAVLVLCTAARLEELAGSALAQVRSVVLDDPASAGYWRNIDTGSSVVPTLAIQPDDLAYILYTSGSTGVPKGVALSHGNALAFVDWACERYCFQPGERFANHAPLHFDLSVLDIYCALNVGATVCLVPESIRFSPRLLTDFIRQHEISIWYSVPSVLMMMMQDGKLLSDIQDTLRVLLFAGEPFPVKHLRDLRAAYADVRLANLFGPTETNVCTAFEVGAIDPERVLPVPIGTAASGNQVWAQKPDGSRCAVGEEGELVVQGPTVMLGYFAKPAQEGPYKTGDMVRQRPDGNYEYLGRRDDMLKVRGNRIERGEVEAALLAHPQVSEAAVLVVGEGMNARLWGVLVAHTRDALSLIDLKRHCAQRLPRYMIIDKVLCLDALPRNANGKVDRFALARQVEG
In words: NMR titration.

B1: PltF Q438R (enzyme)
chain: MKLLHERMMHSLARYPRQTAVVDEQDALSYEALELRIREFVAMLCALGVGQGQRILLWAHKSVDLVAVMQAALRLGVVYVPVDPLSPVSRLEKIAGDSQAVLVLCTAARLEELAGSALAQVRSVVLDDPASAGYWRNIDTGSSVVPTLAIQPDDLAYILYTSGSTGVPKGVALSHGNALAFVDWACERYCFQPGERFANHAPLHFDLSVLDIYCALNVGATVCLVPESIAFSPRLLTDFIRQHEISIWYSVPSVLMMMMQDGDLLSDIQDTLRVLLFAGEPFPVKHLRDLRAAYADVRLANLFGPTETNVCTAFEVGAIDPERVLPVPIGTAASGNQVWAQKPDGSRCAVGEEGELVVQGPTVMLGYFAKPAQEGPYKTGDMVRQRPDGNYEYLGRRDDMLKVRGNRIERGEVEAALLAHPQVSEAAVLVVGEGMNARLWGVLVAHTRDALSLIDLKRHCAQRLPRYMIIDKVLCLDALPRNANGKVDRFALARQVEG
In assay [1], B1 had a turnover rate of AcpP prolylation (time course, HPLC) of 0.264 AcpP h^-1.

B2: PltF Q438R K472R D263N (enzyme)
chain: MKLLHERMMHSLARYPRQTAVVDEQDALSYEALELRIREFVAMLCALGVGQGQRILLWAHKSVDLVAVMQAALRLGVVYVPVDPLSPVSRLEKIAGDSQAVLVLCTAARLEELAGSALAQVRSVVLDDPASAGYWRNIDTGSSVVPTLAIQPDDLAYILYTSGSTGVPKGVALSHGNALAFVDWACERYCFQPGERFANHAPLHFDLSVLDIYCALNVGATVCLVPESIAFSPRLLTDFIRQHEISIWYSVPSVLMMMMQDGNLLSDIQDTLRVLLFAGEPFPVKHLRDLRAAYADVRLANLFGPTETNVCTAFEVGAIDPERVLPVPIGTAASGNQVWAQKPDGSRCAVGEEGELVVQGPTVMLGYFAKPAQEGPYKTGDMVRQRPDGNYEYLGRRDDMLKVRGNRIERGEVEAALLAHPQVSEAAVLVVGEGMNARLWGVLVAHTRDALSLIDLKRHCAQRLPRYMIIDRVLCLDALPRNANGKVDRFALARQVEG
B2 yielded a turnover rate of AcpP prolylation (time course, HPLC) in assay [2] of 1.98 AcpP h^-1.

B3: desulfo-AcpP (15N-labelled E. coli acyl carrier protein AcpP loaded with a desulfo-PPant mimic) (natural protein, Escherichia coli)
chain: STIEERVKKIIGEQLGVKQEEVTNNASFVEDLGADSLDTVELVMALEEEFDTEIPDEEAEKITTVQAAIDYINGHQA
modifications: desulfo-phosphopantetheine (desulfo-PPant mimic) loaded onto apo-AcpP; uniform 15N labelling
As to B3, the binding result in the assay with PltF Q438R D263K A230R was “binds”.
